For five molecules, Kd, koff and kon results are on record in patent US20260217860A1 (BIOCYTOGEN PHARMACEUTICALS BEIJING, published 2026).

The chains are these.
B1: E-9A6-M-11E8 (bispecific antibody)
heavy 1: not shown
heavy 2: QVQLVQSGGGVVQPGRSLRLSCAASGFTFSSYAMHWVRQAPGKGLEWVAVISDDGINKYYADSVKGRFTISRDNSKNTLYLQMNSLRAEDSAVYYCARALPTIFGVVMYFYYGLDVWGQGTTATVSSASTKGPSVFPLAPSSKSTSGGTAALGCLVKDYFPEPVTVSWNSGALTSGVHTFPAVLQSSGLYSLSSVVTVPSSSLGTQTYICNVNHKPSNTKVDKKVEPKSCDKTHTCPPCPAPELLGGPSVFLFPPKPKDTLMISRTPEVTCVVVDVSHEDPEVKFNWYVDGVEVHNAKTKPREEQYNSTYRVVSVLTVLHQDWLNGKEYKCKVSNKALPAPIEKTISKAKGQPREPQVCTLPPSREEMTKNQVSLSCAVKGFYPSDIAVEWESNGQPENNYKTTPPVLDSDGSFFLVSKLTVDKSRWQQGNVFSCSVMHEALHNHYTQKSLSLSPGK
light: not shown
notes: Knobs-into-holes bispecific with a common light chain; also called anti-EGFR/MUC1 bispecific antibody
B2: E-9F3-M-11E8 (bispecific antibody)
heavy 1: not shown
heavy 2: QVQLVQSGGGVVQPGRSLRLSCAASGFTFSSYAMHWVRQAPGKGLEWVAVISDDGINKYYADSVKGRFTISRDNSKNTLYLQMNSLRAEDSAVYYCARALPTIFGVVMYFYYGLDVWGQGTTATVSSASTKGPSVFPLAPSSKSTSGGTAALGCLVKDYFPEPVTVSWNSGALTSGVHTFPAVLQSSGLYSLSSVVTVPSSSLGTQTYICNVNHKPSNTKVDKKVEPKSCDKTHTCPPCPAPELLGGPSVFLFPPKPKDTLMISRTPEVTCVVVDVSHEDPEVKFNWYVDGVEVHNAKTKPREEQYNSTYRVVSVLTVLHQDWLNGKEYKCKVSNKALPAPIEKTISKAKGQPREPQVCTLPPSREEMTKNQVSLSCAVKGFYPSDIAVEWESNGQPENNYKTTPPVLDSDGSFFLVSKLTVDKSRWQQGNVFSCSVMHEALHNHYTQKSLSLSPGK
light: not shown
notes: as for B1
B3: E-9D2-M-11E8 (bispecific antibody)
heavy 1: not shown
heavy 2: QVQLVQSGGGVVQPGRSLRLSCAASGFTFSSYAMHWVRQAPGKGLEWVAVISDDGINKYYADSVKGRFTISRDNSKNTLYLQMNSLRAEDSAVYYCARALPTIFGVVMYFYYGLDVWGQGTTATVSSASTKGPSVFPLAPSSKSTSGGTAALGCLVKDYFPEPVTVSWNSGALTSGVHTFPAVLQSSGLYSLSSVVTVPSSSLGTQTYICNVNHKPSNTKVDKKVEPKSCDKTHTCPPCPAPELLGGPSVFLFPPKPKDTLMISRTPEVTCVVVDVSHEDPEVKFNWYVDGVEVHNAKTKPREEQYNSTYRVVSVLTVLHQDWLNGKEYKCKVSNKALPAPIEKTISKAKGQPREPQVCTLPPSREEMTKNQVSLSCAVKGFYPSDIAVEWESNGQPENNYKTTPPVLDSDGSFFLVSKLTVDKSRWQQGNVFSCSVMHEALHNHYTQKSLSLSPGK
light: not shown
notes: as for B1
B4: E-9H2-M-11E8 (bispecific antibody)
heavy 1: not shown
heavy 2: QVQLVQSGGGVVQPGRSLRLSCAASGFTFSSYAMHWVRQAPGKGLEWVAVISDDGINKYYADSVKGRFTISRDNSKNTLYLQMNSLRAEDSAVYYCARALPTIFGVVMYFYYGLDVWGQGTTATVSSASTKGPSVFPLAPSSKSTSGGTAALGCLVKDYFPEPVTVSWNSGALTSGVHTFPAVLQSSGLYSLSSVVTVPSSSLGTQTYICNVNHKPSNTKVDKKVEPKSCDKTHTCPPCPAPELLGGPSVFLFPPKPKDTLMISRTPEVTCVVVDVSHEDPEVKFNWYVDGVEVHNAKTKPREEQYNSTYRVVSVLTVLHQDWLNGKEYKCKVSNKALPAPIEKTISKAKGQPREPQVCTLPPSREEMTKNQVSLSCAVKGFYPSDIAVEWESNGQPENNYKTTPPVLDSDGSFFLVSKLTVDKSRWQQGNVFSCSVMHEALHNHYTQKSLSLSPGK
light: not shown
notes: Knobs-into-holes bispecific with a common light chain; also called anti-EGFR/MUC1 bispecific antibody; E-9H2-M-llE8
B5: E-6C4-M-11E8 (bispecific antibody)
heavy 1: not shown
heavy 2: QVQLVQSGGGVVQPGRSLRLSCAASGFTFSSYAMHWVRQAPGKGLEWVAVISDDGINKYYADSVKGRFTISRDNSKNTLYLQMNSLRAEDSAVYYCARALPTIFGVVMYFYYGLDVWGQGTTATVSSASTKGPSVFPLAPSSKSTSGGTAALGCLVKDYFPEPVTVSWNSGALTSGVHTFPAVLQSSGLYSLSSVVTVPSSSLGTQTYICNVNHKPSNTKVDKKVEPKSCDKTHTCPPCPAPELLGGPSVFLFPPKPKDTLMISRTPEVTCVVVDVSHEDPEVKFNWYVDGVEVHNAKTKPREEQYNSTYRVVSVLTVLHQDWLNGKEYKCKVSNKALPAPIEKTISKAKGQPREPQVCTLPPSREEMTKNQVSLSCAVKGFYPSDIAVEWESNGQPENNYKTTPPVLDSDGSFFLVSKLTVDKSRWQQGNVFSCSVMHEALHNHYTQKSLSLSPGK
light: not shown
notes: as for B1

The target of the experiment is T1, His-tagged human MUC1 protein hMUC1(24-1158)-His (human, UniProt P15941 24-1158).
T1 construct: not shown: His tag
The experiment can be described thus: SPR, Biacore 8K, 1:1 fit.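 Also: His-tagged targets captured on the chip at roughly 100 RU, antibody analytes flowed at 1 µg/mL in HBS-EP+ pH 7.4, 50 s association, 400 s dissociation.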 A general note: In SPR one partner is held on a chip, and binding of the other changes the refractive index at the surface.
Turning to B1, binding was characterised by a dissociation constant (Kd) of 17.3 nM, the dissociation rate constant (koff) stood at 0.00137 s⁻¹ and the on-rate constant (kon) turned out to be 79100 M⁻¹ s⁻¹.

On to B2, for which binding was characterised by a dissociation constant (Kd) of 5.24 nM, the koff stood at 0.000543 s⁻¹ and the kon was found to be 104000 M⁻¹ s⁻¹.

Turning to B3, the Kd amounted to 5.97 nM, the dissociation rate constant (koff) was found to be 0.000554 s⁻¹ and the kon stood at 92700 M⁻¹ s⁻¹.

Molecule B4 had a Kd of 25.4 nM, a koff of 0.0101 s⁻¹ and an association rate constant (kon) of 400000 M⁻¹ s⁻¹.

As for B5, the dissociation constant Kd was determined as 6.21 nM, the koff is 0.000575 s⁻¹ and the kon worked out at 92700 M⁻¹ s⁻¹.

In general, Kd refers to the concentration at which binding is half-saturated. Usually koff stands for a measure of how fast the partners let go of each other. A high value points to fast dissociation. A word on the kon: it is the rate constant with which the complex forms. Low values mean slow association, high ones fast association.
